{"source": "patent US20180086810A1", "about": "“T CELL RECEPTOR FUSIONS AND CONJUGATES AND METHODS OF USE THEREOF” (ALTOR BIOSCIENCE CORPORATION, priority 2000, published 2018)", "key": {"[1]": {"biological_target": "264 peptide/HLA-A2 complex on T2 cells (human)", "experiment": "cell-based or functional assay"}, "[2]": {"biological_target": "149 peptide/HLA-A2 complex on T2 cells (human)", "experiment": "cell-based or functional assay"}}}
{"substance": "264 scTCR-IL-2 fusion protein (from UniProt P60568 21-153)", "values": [{"measurement": "conjugation between CTLL-2 cells and peptide-loaded T2 cells (flow cytometry, percent conjugates)", "setting": "[1]", "result": 3.25, "unit": "%"}, {"measurement": "conjugation between CTLL-2 cells and peptide-loaded T2 cells (flow cytometry, percent conjugates)", "setting": "[2]", "result": 0.88, "unit": "%"}]}
